T1: purified recombinant human CD40L (human, UniProt P29965 113-261, limits assumed)
T1 construct: also called hCD40L; CD154
T1 sequence (looked up): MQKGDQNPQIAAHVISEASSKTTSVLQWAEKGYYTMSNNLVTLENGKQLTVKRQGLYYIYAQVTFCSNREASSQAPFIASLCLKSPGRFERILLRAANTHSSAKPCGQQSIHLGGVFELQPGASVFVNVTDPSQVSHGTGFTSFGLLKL


Biological target: T1, purified recombinant human CD40L
Assay: ELISA: recombinant human CD40L coated, detected with mouse anti-human IgG then HRP goat anti-mouse IgG
Experimental: Both antibodies were purified by conventional methods and the binding activity of both recombinantly expressed antibodies to hCD40L was assayed. To measure anti-hCD40L variants binding to hCD40L, purified recombinant human CD40L was bound to a 96-well ELISA-grade plate. After blocking, anti-hCD40L variants were added followed by mouse anti-human IgG then horseradish peroxidase-labeled goat anti-mouse IgG. TMB color development was then quantitated at 450 nm by an ELISA reader.

Binder | binding result
Antibody A (anti-human CD40L IgG1 antibody with V215A and E269R mutations in the human IgG1 constant region) (antibody, V domains shown, Human IgG1 with V215A and E269R in the constant region, expressed in HEK-293 Freestyle cells; also called anti-hCD40L variant) VH: EVQLQESGPGLVKPSETLSLTCTVSGDSITNGFWIWIRKPPGNKLEYMGYISYSGSTYYNPSLKSRISISRDTSKNQFSLKLSSVTAADTGVYYCACRSYGRTPYYFDFWGQGTTLTVSS VL: DIVMTQSPSFLSASVGDRVTITCKASQNVITAVAWYQQKPGKSPKLLIYSASNRYTGVPDRFSGSGSGTDFTLTISSLQPEDFADYFCQQYNSYPYTFGGGTKLEIK | binds
Antibody B (anti-human CD40L IgG1 antibody with V215A, E269R and K322A mutations in the human IgG1 constant region) (antibody, V domains shown, Human IgG1 with V215A, E269R and K322A in the constant region, expressed in HEK-293 Freestyle cells; also called anti-hCD40L variant) VH: EVQLQESGPGLVKPSETLSLTCTVSGDSITNGFWIWIRKPPGNKLEYMGYISYSGSTYYNPSLKSRISISRDTSKNQFSLKLSSVTAADTGVYYCACRSYGRTPYYFDFWGQGTTLTVSS VL: DIVMTQSPSFLSASVGDRVTITCKASQNVITAVAWYQQKPGKSPKLLIYSASNRYTGVPDRFSGSGSGTDFTLTISSLQPEDFADYFCQQYNSYPYTFGGGTKLEIK | binds

Reference: US10822423 (TRUSTEES OF DARTMOUTH COLLEGE, dated 2020)
